# B1: V5-tagged full-length OX1R [mouse] / Myc-tagged Dynlt1 [mouse] (parent complex)
# chain 1: MEPSATPGAQPGVPTSSGEPFHLPPDYEDEFLRYLWRDYLYPKQYEWVLIAAYVAVFLIALVGNTLVCLAVWRNHHMRTVTNYFIVNLSLADVLVTAICLPASLLVDITESWLFGQALCKVIPYLQAVSVSVAVLTLSFIALDRWYAICHPLLFKSTARRARGSILGIWAVSLAVMVPQAAVMECSSVLPELANRTRLFSVCDEHWADELYPKIYHSCFFIVTYLAPLGLMAMAYFQIFRKLWGRQIPGTTSALVRNWKRPSEQLEAQHQGLCTEPQPRARAFLAEVKQMRARRKTAKMLMVVLLVFALCYLPISVLNVLKRVFGMFRQASDREAVYACFTFSHWLVYANSAANPIIYNFLSGKFREQFKAAFSCCLPGLGPGSSARHKSLSLQSRCSVSKVSEHVVLTTVTTVLS
# chain 2: MEDFQASEETAFVVDEVSSIVKEAIESAIGGNAYQHSKVNQWTTNVLEQTLSQLTKLGRPFKYIVTCVIMQKNGAGLHSASSCFWDSSTDGSCTVRWENKTMYCIVSTFGLSI
# Variants of: B1
# Test: co-IP, quantification of Western blotting bands; parent: 100; read off a plot
row,Variant,percent of parent
1,"chain 1 T409A, chain 1 T412A",~28 % vs OX1R wild-type
